Source: patent US20250257130A1 (NONA BIOSCIENCES SUZHOU, published 2025)
Numbering of substitutions follows the chain as printed.

B1: PR005352 (antibody, human IgG1, V domains shown)
VH: EVQLVESGGGLVKPGGSLRLSCAASGFTFSDYYMSWIRQAPGKGLEWISYISSSGGSIYYADSVKGRFTISRDNAKNSLYLQMNRLRAEDTALYYCARTPPSSNNWYEDFDYWGQGALVTVSS
notes: HCAb (heavy chain-only, human IgG1 Fc), no light chain
B2: PR005344 (antibody, human IgG1, V domains shown)
VH: EVQLVESGGGLVKPGGSLRLSCAASGFTFSDYYMSWIRQAPGKGLEWISYISNSSSSISYANSVKGRFTVSRDNAKNSLYLQMNSLRAEDTALYYCARSPRGAFYEDFDYWGQGTLVTVSS
notes: as for B1
B3: PR005349 (antibody, human IgG1, V domains shown)
VH: B2 VH with G102S
notes: as for B1
B4: PR005340 (antibody, human IgG1, V domains shown)
VH: EVQLVESGGGLVKPGGSLRLSCAASGFTFSDYYMSWIRQAPGKGLEWISYISSSGSTIHYADSVKGRFTISRDNAKNSLYLQMNSLRAEDTAIYYCARDIPSSSSDWVSLQFDYWGQGTLVTVSS
notes: as for B1
B5: PR005338 (antibody, human IgG1, V domains shown)
VH: B4 VH with S56T, A88T, I93V, I100A, S104N
notes: as for B1
B6: PR007417 (antibody, V domains shown)
VH: B4 VH with Y32F, I58R, H59Y, S109D
notes: bivalent form (HCAb) variant of PR005340, no light chain
B7: PR007424 (antibody, V domains shown)
VH: B4 VH with S52D, S56R, T57P, I58L, H59A, I100M
notes: as for B6

These binders were tested against T1, human ROR1 on cells (HEK293T-hROR1, PANC-1, A549) (human, UniProt Q01973 30-937) (assay: flow cytometry, PANC-1 cells).
T1 construct: whole, on cells; one molecule for the three cell lines; also called huROR1; cell surface ROR1
T1 sequence (Q01973 30-937): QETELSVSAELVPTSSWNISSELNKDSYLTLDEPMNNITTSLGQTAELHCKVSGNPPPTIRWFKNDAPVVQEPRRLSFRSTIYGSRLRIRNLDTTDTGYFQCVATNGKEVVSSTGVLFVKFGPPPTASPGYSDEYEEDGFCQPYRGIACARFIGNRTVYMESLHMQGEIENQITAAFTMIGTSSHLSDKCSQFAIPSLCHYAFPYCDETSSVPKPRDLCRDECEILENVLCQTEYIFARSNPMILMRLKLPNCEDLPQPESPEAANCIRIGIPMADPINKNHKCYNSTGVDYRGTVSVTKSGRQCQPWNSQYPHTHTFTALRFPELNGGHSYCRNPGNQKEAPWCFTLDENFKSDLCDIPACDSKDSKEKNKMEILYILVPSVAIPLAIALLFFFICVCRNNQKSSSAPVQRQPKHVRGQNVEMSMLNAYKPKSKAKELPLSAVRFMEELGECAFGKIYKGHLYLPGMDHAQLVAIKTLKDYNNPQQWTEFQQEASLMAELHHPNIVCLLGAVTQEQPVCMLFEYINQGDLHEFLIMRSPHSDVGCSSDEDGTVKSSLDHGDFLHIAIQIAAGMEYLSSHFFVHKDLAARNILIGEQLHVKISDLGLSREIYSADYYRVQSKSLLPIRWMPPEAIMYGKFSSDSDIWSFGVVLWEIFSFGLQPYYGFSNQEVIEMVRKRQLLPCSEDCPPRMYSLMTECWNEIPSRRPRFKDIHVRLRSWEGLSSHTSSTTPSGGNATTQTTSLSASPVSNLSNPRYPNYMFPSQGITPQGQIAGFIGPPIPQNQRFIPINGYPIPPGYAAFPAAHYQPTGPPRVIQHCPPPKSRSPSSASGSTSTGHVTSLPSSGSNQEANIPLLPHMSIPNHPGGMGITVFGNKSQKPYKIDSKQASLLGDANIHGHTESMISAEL
Experimental: (§1) In brief, anti-ROR1 antibodies were serially diluted in staining buffer (PBS containing 2% FBS). Antibody solution was incubated with 1×10⁵ cells at 4° C. for 1 hour. […] After 1-hour incubation at 4° C., cells were washed twice with staining buffer and subjected to flow cytometry. PR000374 (Bench marker 1) and non-relevant IgG isotype control (Crownbio) were used as positive and negative controls, respectively.
With B1 the Max was 23300. B2 showed a Max of 12400. In the case of B3, the Max is reported as 27100. Binder B4 has a Max of 17500. B5 showed a Max of 12700.

Target: T1, human ROR1 on cells (HEK293T-hROR1, …)
Test: flow cytometry, PANC-1 cells
Remark: another data set of the same source
Experimental: as §1
Binding activity of the variants to PANC-1 cells were tested using the same method described in example 5.1. The results were shown in FIGS. 7-8 and Table 11 and Table 12.
B4 gave a TOP of 84900. B6 was tested, and the TOP was 83800. B7 gave a TOP of 70800.

What follows are binders tested against T2, cynomolgus ROR1 on CHO-K1-cynoROR1 cells (cynomolgus monkey, UniProt A0A2K5WTX7 30-937) (assay: flow cytometry, CHO-K1-cynoROR1 cells).
T2 construct: whole, on cells
Binder B2 has a Max of 30700. B4 was tested, and the Max was 36400. For B5, the Max was 33300.

Each binder was assayed against T3, hu-ROR2-ECD-his (Acrobiosystems RO2-H52E5) (human, UniProt Q01974 34-403) (assay: BLI, antibody on AHC sensor, ROR2-His in solution).
T3 construct: extracellular domain; bought protein; also called Human ROR2 his-tagged protein; Human ROR2, His Tag
T3 sequence (Q01974 34-403): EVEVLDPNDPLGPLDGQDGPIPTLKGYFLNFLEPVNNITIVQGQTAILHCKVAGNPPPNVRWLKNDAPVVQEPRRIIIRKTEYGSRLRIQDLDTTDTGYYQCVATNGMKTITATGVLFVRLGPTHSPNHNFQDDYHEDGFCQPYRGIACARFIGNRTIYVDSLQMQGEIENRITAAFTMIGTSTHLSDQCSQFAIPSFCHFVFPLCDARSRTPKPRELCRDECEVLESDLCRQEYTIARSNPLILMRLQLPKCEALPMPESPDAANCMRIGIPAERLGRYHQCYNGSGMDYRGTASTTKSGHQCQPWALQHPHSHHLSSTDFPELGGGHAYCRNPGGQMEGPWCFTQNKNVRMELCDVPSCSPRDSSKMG
Experimental: In the example, binding kinetics of anti-ROR1 antibodies to soluble ROR2 protein were analyzed by using Bio-Layer Interferometry (BLI) analysis on Fortebio Octet Red384 instrument (Fortebio). […] The captured biosensors were then dipped in wells containing 2-fold serial dilutions of antigen proteins to detect association signals, followed by dissociation steps in wells containing 1× kinetic buffer. Human ROR2 his-tagged protein (Acrobiosystems, #RO2-H52E5) was diluted from 600 nM to 37.5 nM; the association phase was 180 seconds, and the dissociation phase was 180 seconds. The sensorgrams were recorded and the reference signals were subtracted before curve fitting using ForteBio Data Analysis 11.0 software. Association rates (kₒₙ) and dissociation rates (kdis) were calculated using a simple one-to-one Langmuir binding model. The equilibrium dissociation constant (KD) was calculated as the ratio of kdis/kₒₙ.
B4: no binding (tested: 37.5-600 nM). B5: no binding (tested: 37.5-600 nM). B6: no binding (tested: 37.5-600 nM). B7: no binding (tested: 37.5-600 nM).

The binders below were run against T4, Human ROR1-ECD-his (Acro Biosystems RO1-H522y) (human, UniProt Q01973 30-406) (assay: BLI, antibody on AHC sensor, ROR1-His 5-80 nM in solution).
T4 construct: extracellular domain; bought protein; also called hROR1-ECD-his; hu-ROR1-ECD-his
T4 sequence (Q01973 30-406): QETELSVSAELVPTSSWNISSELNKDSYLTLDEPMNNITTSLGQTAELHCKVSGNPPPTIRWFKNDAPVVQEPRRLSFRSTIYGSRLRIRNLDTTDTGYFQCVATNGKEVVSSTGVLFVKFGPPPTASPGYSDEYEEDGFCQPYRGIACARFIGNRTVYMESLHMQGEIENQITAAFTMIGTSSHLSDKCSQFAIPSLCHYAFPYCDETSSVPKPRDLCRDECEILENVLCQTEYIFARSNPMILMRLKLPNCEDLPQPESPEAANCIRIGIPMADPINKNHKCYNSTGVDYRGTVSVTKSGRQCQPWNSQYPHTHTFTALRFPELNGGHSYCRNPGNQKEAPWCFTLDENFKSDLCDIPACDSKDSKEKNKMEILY
Experimental: The captured biosensors were then dipped in wells containing 2-fold serial dilutions of antigen proteins to detect association signals, followed by dissociation steps in wells containing 1× kinetic buffer. Human ROR1 hits-tagged protein (Acrobiosystems, #RO1-H522y) was diluted from 80 nM to 5 nM; the association phase was 180 seconds, and the dissociation phase was 600 seconds. The sensorgrams were recorded and the reference signals were subtracted before curve fitting using ForteBio Data Analysis 11.0 software. Association rates (kₒₙ) and dissociation rates (kdis) were calculated using a simple one-to-one Langmuir binding model. The equilibrium dissociation constant (KD) was calculated as the ratio of kdis/kₒₙ.
In the case of B4, the Kd is reported as 1.2 nM, the koff is reported as 0.000171 s⁻¹ and the kon is reported as 143000 M⁻¹ s⁻¹. Binder B5 has a Kd of 2.4 nM, a koff of 0.000316 s⁻¹ and a kon of 132000 M⁻¹ s⁻¹. B6 was tested, and the Kd was 0.18 nM, the koff was 4.86e-05 s⁻¹ and the kon was 271000 M⁻¹ s⁻¹. B7 gave a Kd of 1.01 nM, a koff of 0.000284 s⁻¹ and a kon of 281000 M⁻¹ s⁻¹.

Each binder was assayed against T1, human ROR1 on cells (HEK293T-hROR1, …) (assay: flow cytometry on PANC-1 cells, MFI (APC-A Median)).
Experimental: (§2) Binding of recombinant anti-ROR1 antibodies to human or cynomolgus ROR1-overexpressing cells was tested by flow cytometry. In this example, ROR1-expressing cell lines are HEK293T cell lines that had been transfected to express human ROR1 on the surface (HEK293T-hu ROR1, KYINNO BIOTECHNOLOGY CO., LTD, Catalog #KC-1018), CHO-K1 cell lines that had been transfected to express cynomolgus ROR1 (CHOK1-cyno ROR1), PANC-1 (ATCC, catalog: CRL-1469) or A549 cell lines (Shanghai Institute of Biochemistry and Cell Biology, Chinese Academy of Sciences).
as §1
With B4 the “EC50 (read off the curve)” value was roughly 2 nM.

What follows are binders tested against T4, Human ROR1-ECD-his (Acro Biosystems …) (assay: BLI in-tandem, row = 1st Ab; competitor (2nd Ab): PR000374).
From the text: (§3) To determine if anti-ROR1 antibodies bind to human ROR1 on different or approximate binding epitopes, the ForteBio Octet® RED96e platform was used to perform epitope competition experiments on the anti-ROR1 antibodies. Human ROR1 protein (Acrobiosystems, #RO1-H522y) was biotinylated and then captured onto SA biosensors (ForteBio, #18-5020) to reach loading level of 0.3-0.4 nm. The in-tandem competition assay format was applied and it contains two association steps. Firstly, the antigen-loaded biosensors bind to each antibody (a.k.a, First antibody, 1st Ab) with a saturating concentration of 200 nM for 180 seconds to reach equilibrium and then secondly bind to the competing antibodies (a.k.a, Second antibody, 2nd Ab) of 200 nM for 180 seconds. The second binding signals were recorded as the 100% signal of each antibody when the first antibodies were replaced by kinetics buffer. All the binding data were analyzed using ForteBio Data Analysis 11.0 software. The inhibition rate is calculated by the following formula: […]
With B4 the “Inhibition (%)” value was -0.17%. For B5, the “Inhibition (%)” value was -3.02%. In the case of B6, the “Inhibition (%)” value is reported as 10.2%. In the case of B7, the “Inhibition (%)” value is reported as -0.73%.

These binders were tested against T4, Human ROR1-ECD-his (Acro Biosystems …) (assay: BLI in-tandem, row = 1st Ab; competitor (2nd Ab): PR005338).
From the text: as §3
For B4, the “Inhibition (%)” value was 106%. B5 was tested, and the “Inhibition (%)” value was 104%. For B6, the “Inhibition (%)” value was 114%. For B7, the “Inhibition (%)” value was 108%.

What follows are binders tested against T4, Human ROR1-ECD-his (Acro Biosystems …) (assay: BLI in-tandem, row = 1st Ab; competitor (2nd Ab): PR005340).
From the text: as §3
B4 was tested, and the “Inhibition (%)” value was 109%. In the case of B5, the “Inhibition (%)” value is reported as 108%. For B6, the “Inhibition (%)” value was 116%. For B7, the “Inhibition (%)” value was 111%.

The binders below were run against T4, Human ROR1-ECD-his (Acro Biosystems …) (assay: BLI in-tandem, row = 1st Ab; competitor (2nd Ab): PR007417).
From the text: as §3
In the case of B4, the “Inhibition (%)” value is reported as 109%. B5 was tested, and the “Inhibition (%)” value was 108%. With B6 the “Inhibition (%)” value was 113%. In the case of B7, the “Inhibition (%)” value is reported as 111%.

These binders were tested against T4, Human ROR1-ECD-his (Acro Biosystems …) (assay: BLI in-tandem, row = 1st Ab; competitor (2nd Ab): PR007424).
From the text: as §3
With B4 the “Inhibition (%)” value was 106%. For B5, the “Inhibition (%)” value was 102%. In the case of B6, the “Inhibition (%)” value is reported as 111%. With B7 the “Inhibition (%)” value was 107%.

These binders were tested against T1, human ROR1 on cells (HEK293T-hROR1, …) (assay: flow cytometry on PANC-1 cells, MFI (FITC-A Median)).
Experimental: as §2, §1
For B2, the “EC50 (read off the curve)” value was roughly 20 nM. For B5, the “EC50 (read off the curve)” value was roughly 7 nM.

The binders below were run against T1, human ROR1 on cells (HEK293T-hROR1, …) (assay: flow cytometry on PANC-1 cells, MFI (Median-APC) [top panel]).
With B4 the “EC50 (read off the curve)” value was roughly 3 nM.

Each binder was assayed against T1, human ROR1 on cells (HEK293T-hROR1, …) (assay: flow cytometry on PANC-1 cells, MFI (FITC-A Median) [continued) C]).
Experimental: as §2, §1
In the case of B1, the “EC50 (read off the curve)” value is reported as roughly 9 nM. B3 was tested, and the “EC50 (read off the curve)” value was roughly 10 nM.

What follows are binders tested against T2, cynomolgus ROR1 on CHO-K1-cynoROR1 cells (assay: flow cytometry on CHOK1-cynoROR1 cells, MFI (APC-A Median) [top panel]).
Experimental: as §2, §1
With B4 the “EC50 (read off the curve)” value was roughly 3 nM.

Each binder was assayed against T1, human ROR1 on cells (HEK293T-hROR1, …) (assay: flow cytometry on PANC-1 cells, MFI (Median-APC) [bottom panel, letter not given]).
With B4 the “EC50 (read off the curve)” value was roughly 2 nM. In the case of B7, the “EC50 (read off the curve)” value is reported as roughly 0.6 nM.

The binders below were run against T1, human ROR1 on cells (HEK293T-hROR1, …) (assay: flow cytometry on PANC-1 cells, MFI (Median-APC) [middle panel, letter not given]).
B4 was tested, and the “EC50 (read off the curve)” value was roughly 2 nM. With B6 the “EC50 (read off the curve)” value was roughly 0.8 nM.

Each binder was assayed against T2, cynomolgus ROR1 on CHO-K1-cynoROR1 cells (assay: flow cytometry on CHOK1-cynoROR1 cells, MFI (APC-A Median) [middle panel, letter not given]).
Experimental: as §2, §1
In the case of B2, the “EC50 (read off the curve)” value is reported as roughly 10 nM. For B5, the “EC50 (read off the curve)” value was roughly 8 nM.
